T1: FBXL2 in the crystallised GGTase3-FBXL2-SKP1 complex (human, UniProt Q9UKC9 1-423)
T1 sequence: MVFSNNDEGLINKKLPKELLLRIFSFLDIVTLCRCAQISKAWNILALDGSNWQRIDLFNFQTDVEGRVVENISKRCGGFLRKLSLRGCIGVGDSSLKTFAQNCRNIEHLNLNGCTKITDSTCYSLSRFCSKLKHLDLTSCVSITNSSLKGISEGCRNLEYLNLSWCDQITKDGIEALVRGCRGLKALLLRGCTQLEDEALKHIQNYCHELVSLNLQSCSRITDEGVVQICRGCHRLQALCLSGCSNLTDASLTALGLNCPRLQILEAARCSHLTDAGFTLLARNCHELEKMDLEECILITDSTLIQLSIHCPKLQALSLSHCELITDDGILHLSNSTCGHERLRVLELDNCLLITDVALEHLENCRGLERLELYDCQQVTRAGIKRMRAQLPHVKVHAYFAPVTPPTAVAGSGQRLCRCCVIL

B1: PTAR1 in the crystallised GGTase3-FBXL2-SKP1 complex (natural protein)
chain: MAETSEEVAVLVQRVVKDITNAFRRNPHIDEIGLIPCPEARYNRSPIVLVENKLGVESWCVKFLLPYVHNKLLLYRTRKQWLNRDELIDVTCTLLLLNPDFTTAWNVRKELILSGTLNPIKDLHLGKLALTKFPKSPETWIHRRWVLQQLIQETSLPSFVTKGNLGTIPTERAQRLIQEEMEVCGEAAGRYPSNYNAWSHRIWVLQHLAKLDVKILLDELSSTKHWASMHVSDHSGFHYRQFLLKSLISQTVIDSSVMEQNPLRSEPALVPPKDEEAAVSTEEPRINLPHLLEEEVEFSTDLIDSYPGHETLWCHRRHIFYLQHHLNAGSQLSQAMEVDGLNDSSKQGYSQETKRLKRTPVPDSLGLEMEHRFIDQVLSTCRNVEQARFASAYRKWLVTLSQ
B2: RabGGTB in the crystallised GGTase3-FBXL2-SKP1 complex (natural protein)
chain: MGTPQKDVIIKSDAPDTLLLEKHADYIASYGSKKDDYEYCMSEYLRMSGIYWGLTVMDLMGQLHRMNREEILAFIKSCQHECGGISASIGHDPHLLYTLSAVQILTLYDSINVIDVNKVVEYVKGLQKEDGSFAGDIWGEIDTRFSFCAVATLALLGKLDAINVEKAIEFVLSCMNFDGGFGCRPGSESHAGQIYCCTGFLAITSQLHQVNSDLLGWWLCERQLPSGGLNGRPEKLPDVCYSWWVLASLKIIGRLHWIDREKLRNFILACQDEETGGFADRPGDMVDPFHTLFGIAGLSLLGEEQIKPVNPVFCMPEEVLQRVNVQPELVS

Experiments:
[1] = target: T1, FBXL2 in the crystallised …; experiment: crystal structure
[2] = target: B1; experiment: crystal structure

Row | binding result [1] | binding result [2] | Binder
1 | binds |  | B1
2 |  | binds | B2
